From patent US20260209365A1, “ANTI-COMMON GAMMA CHAIN PROTEINS AND COMPOSITIONS OF MATTER” (SINOMAB BIOSCIENCE LIMITED, priority 2023, published 2026)

Legend:
[1] = target: T1, human γc on cells (KHYG-1, Ramos, HPB-ALL, Jurkat, PBMC) (human) (UniProt P31785); test: cell-based or functional assay
T1 sequence (looked up): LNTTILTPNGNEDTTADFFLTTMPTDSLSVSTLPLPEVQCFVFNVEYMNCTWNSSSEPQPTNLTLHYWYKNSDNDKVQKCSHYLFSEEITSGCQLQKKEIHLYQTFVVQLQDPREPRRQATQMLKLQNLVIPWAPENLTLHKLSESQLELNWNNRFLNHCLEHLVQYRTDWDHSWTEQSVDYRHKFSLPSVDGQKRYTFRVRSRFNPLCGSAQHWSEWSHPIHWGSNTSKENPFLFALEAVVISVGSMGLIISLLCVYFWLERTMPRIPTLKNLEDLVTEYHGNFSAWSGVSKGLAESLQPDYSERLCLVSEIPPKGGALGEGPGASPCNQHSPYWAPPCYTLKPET

[2] = system: IL-15 induced STAT5 phosphorylation; test: Inhibition of IL-15 induced STAT phosphorylation in KHYG-1 NK cell line, flow cytometry; format: cell-based, human; details: ScFv 10 μg/ml
Excerpt: (§1) Cells were harvested and stained with FITC conjugated anti-pSTAT6, PE conjugated anti-pSTAT3 or APC con jugated anti-pSTAT5 antibodies for flow cytometry analyses. In some embodiments, the purified ScFv could block the IL-4 induced STAT6 phosphorylation in cell culture (e.g., Ramos). In some embodiments, the purified ScFv could block the IL-7 induced STAT5 phosphorylation in cell culture (e.g., HPB-ALL). In some embodiments, the purified ScFv could block the IL-9 induced STAT3 phosphorylation in cell culture (e.g., Jurkat). In some embodiments, the purified ScFv could block the IL-15 induced STAT5 phosphorylation in cell culture (e.g., KHYG-1). In some embodiments, the purified ScFv could block the IL-21 induced STAT3 phosphorylation in cell culture (e.g., Ramos).
(§2) Flow cytometry was employed to measure the percentage of p-STAT expressing cells after cytokine induction and anti-γc ScFv treatment. KHYG-1 (Creative Bioarray, Shirley, NY 11967, USA) was starved in IL-2 free RPMI1640 (ATCC modification, ThermoFisher Scientific, Waltham, MA, USA) with 10% FBS (ThermoFisher Scientific) for 2 days. Ramos, HPB-ALL and Jurkat cell lines were used directly without starvation. Cells were replenished with fresh RPMI1640 medium and pretreated with anti-γc ScFv (10 μg/mL) for an hour. After treatment with TL-4 (10 ng/ml, Sino Biological), IL-7 (50 ng/ml, Sino Biological), IL-9 (50 ng/ml, Sino Biological), IL-15 (10 ng/ml, Sino Biological) or IL-21 (10 ng/ml, Sino Biological) for 15 min, cells were fixed in 4% paraformaldehyde (PFA, Sigma, St. Louis, Missouri, USA) for 10 min, permeabilized in 0.1% Triton X-100 (Sigma) for 10 min and then stained with FITC conjugated anti-pSTAT6, PE conjugated anti-pSTAT3 or APC con jugated anti-pSTAT5 (all diluted in 1:100, Biolegend, San Diego, California, USA) for 30 min at 37° C. Percentage of p-STAT expressing cells was measured by BD FACSLyric™ Clinical Flow Cytometry System (BD Biosciences, New Jersey, USA). Data were analyzed by Flowjo (version 10, BD).
(§3) Different cell lines were used for testing. KHYG-1 refers to the NK cell line harvested from the peripheral blood of a person with aggressive NK cell leukemia. This cell line could respond to IL-2 and IL-15 stimulation in-vitro [Yamasaki et al., Leuk Res., […]; 28 (10): 1023-31]. Ramos is a human Burkitts Lymphoma cell line (CRL-1596™) and could be used as a model for IL-4 and IL-21 studies [Hui et al., Front Immunol., 2022; 13: 919854]. Jurkat is a human T lymphoblast cell line (Clone E6-1, TIB-152™) and is widely used in the T cell studies of IL-9 function. HPB-ALL is a T cell leukemia model established from the peripheral blood of a child with ALL and thymoma at diagnosis in 1973 and could be used for IL-7 functional studies.

[3] = system: IL-21 induced STAT3 phosphorylation; test: Inhibition of IL-21 induced STAT phosphorylation in Ramos B cell line, flow cytometry; format: cell-based, human; details: ScFv 10 μg/ml
Excerpt: as §1, §2, §3

[4] = system: IL-7 induced STAT5 phosphorylation; test: Inhibition of IL-7 induced STAT5 phosphorylation in HPB-ALL T cell line, flow cytometry; format: cell-based, human; details: ScFv 10 μg/ml
Excerpt: as §1, §2, §3

Row | Molecule | p-STAT3 inhibition (%), IL-9 induced, Jurkat T cells, flow cytometry [1] [%] | p-STAT3 inhibition (%), IL-21 induced, Ramos B cells, flow cytometry [1] [%] | p-STAT5 inhibition (%), IL-7 induced, HPB-ALL T cells, flow cytometry [1] [%] | p-STAT5 inhibition (%), IL-15 induced, KHYG-1 NK cells, flow cytometry [1] [%] | p-STAT6 inhibition (%), IL-4 induced, Ramos B cells, flow cytometry [1] [%] | p-STAT5 inhibition (%) [2] [%] | p-STAT3 inhibition (%) [3] [%] | p-STAT5 inhibition (%) [4] [%]
1 | SM-05A anti-γc ScFv (scFv, part only; not given: linker and E-tag, not shown: small tags and cut ends) scFv (part 1 of 2), part: EVQLQQSGPELVKPGASVKISCKTSGYTFTEYTMHWVKQSHGKSLEWIGGIDPYNGGATYNQRFKGKATLTVDKSSSTAYMEFRSLTSEDSAVYYCARRRLYYGNALDYWGQGTSVTVSS scFv (part 2 of 2), part: DVLMTQTPLSLPVSLGDQASISCRSSQSLVHSNGNTYLHWYLQRPGQSPKLLIYKVSSRFSGVPDRFSGSGSGTDFTLKISRVEAEDLGVYFCSQTTHVPFTFGSGTKLEIKR | 80.6 | 47.3 | 100 | 48.6 | 86.1 |  |  | 
2 | SM-05J anti-γc ScFv (scFv, part only; not given: linker and E-tag, not shown: small tags and cut ends) scFv (part 1 of 2), part: EVQLQQSGPELVKPGASVKISCKTSGYTFTEYTMHWVKQSHGKSLEWIGGIDPYNGGITYNQRFKGKATLTVDKSSSTAYMELRSLTSEDSAVYYCARRRLYYGYALDYWGQGTSVTVSS scFv (part 2 of 2), part: DVVMTQTPLSLPVSLGDQASISCRSSQSIVHSNGNTYLEWYLQKPGQSPKLLIYKVSNRFSGVPDRFSGSGSGTDFTLKISRVEAEDLGVYYCFQGSHVPFTFGSGTKLEIKR | 100 | 75.8 | 98.1 | 42.7 | 82.2 |  |  | 
3 | SM-05B anti-γc ScFv (scFv, part only; not given: linker and E-tag, not shown: small tags and cut ends) scFv (part 1 of 2), part: QVQLQQSGPELVKPGASVKIFCKTSGYTFTEYTMHWVKQSHGESLEWIGGIDPNTGGATYNQKFKGKATLTADKSSSTAYMELRSLTSEDSAVYYCARRRRYYGYALDYWGQGTSVTVSS scFv (part 2 of 2), part: DVLMTQTPLSLPVSLGDQASISCRSSQSIVHSNGNTYLEWYLQKPGQSPKLLIYKVSNRFSGVPDRFSGSGSGTDFTLKISRVEAEDLGVYFCSQSTHVPWTFGGGTKLEIKR | 82.6 | 13.8 | 94.5 | 47.1 | 77 |  |  | 
4 | SM-05E anti-γc ScFv (scFv, part only; not given: linker and E-tag, not shown: small tags and cut ends) scFv (part 1 of 2), part: EVHLQQSGPELVKPGASVKIFCKTSGYTFTEYTMHWVKQSHGESLEWIGGIDPNTGGVTYNQKFKGKATLTADKSSSTAYMELRSLTSEDSAVYYCARRRRYYGYALDYWGQGTSVTVSS scFv (part 2 of 2), part: DVLMTQTPLSLPVSLGDQASISCRSSQSIVHSNGNTYLEWYLQKPGQSPKLLIYKVSNRFSGVPDRFSGSGSGTDFTLKISSVEAEDLGVYFCSQSTHVPFMFGSGTKLEIKR | 74.3 | 60.6 | 98.3 | 47.8 | 85.6 |  |  | 
5 | SM-05I anti-γc ScFv (scFv, part only; not given: linker and E-tag, not shown: small tags and cut ends) scFv (part 1 of 2), part: QVQLQQSGAELAKPGASVKLSCKASGYTFTEYTMHWVKQSHGESLDWIGGIDPNTGGATYNQRFKGKATMTVDKSSSTAYMEFRSLTSEDSAVYYCARRRRYYGYALDNWGQGTSVTVSS scFv (part 2 of 2), part: DVLMTQTPLSLPVSLGDQASISCRSSQSIVHSNGNTYLEWYLQKPGQSPKLLIYKVSNRFSGVPDRFSGSGSGTDFTLKISRVEAEDLGVYYCFQDSHVPFTFGSGTKLEIKR | 100 | 91 |  | 38.9 | 74.1 |  |  | 
6 | SM-05K anti-γc ScFv (scFv, part only; not given: linker and E-tag, not shown: small tags and cut ends) scFv (part 1 of 2), part: EVQLLESGPELVKPGASVKISCKTSGYSFTDYFMNWVKQSHGESLEWIGGIDPNTGGVTYNQKFKGKATLTVDKSASTAYMELRSLTSEDSAVYYCARRRRYYGYAMDYWGQGTSVTVSS scFv (part 2 of 2), part: DVLMTQTPLSLPVSLGDQASISCRSSQSIVHSNGNTYLEWYLQKPGQSPKLLIYKVSNRFSGVPDRFSGSGSGTDFTLKISRVEAEDLGVYFCSQSTHVPWTFGGGTKLEIKR |  | 90.8 | 86 | 43 |  |  |  | 
7 | SM-05C anti-γc ScFv (scFv, part only; not given: linker and E-tag, not shown: small tags and cut ends) scFv (part 1 of 2), part: QVQLQQSGPELVKPGASVKIFCKTSGYTFTEYTMHWVKQSHGESLEWIGGIDPNTGGATYNQKFKGKATLTADKSSSTAYMELRSLTSEDSAVYYCARRRRYYGYAMDYWGQGTSVTVSS scFv (part 2 of 2), part: DVVMTQTPLSLPVSLGDQASISCRSSQSLVHSNGNTYLHWYLQKPGQSPKLLIYKVSNRFSGVPDRFSGSGSGTDFTLKISRVEAEDLGIYYCFQDSHVPFTFGSGTKLEIKR | 97.9 | 29.1 | 100 | 46 | 46 |  |  | 
8 | SM-05H anti-γc ScFv (scFv, part only; not given: linker and E-tag, not shown: small tags and cut ends) scFv (part 1 of 2), part: QVQLQQSGPELVKPGASMNIFCKTSGYTFTEYTMHWVKQSHGESLEWIGGIDPNTGGATYNQKFKGQATLTADKSSSTAYMELRSLTSEDSAVYYCARRRRYYGYALDYWGQGTSVTVSS scFv (part 2 of 2), part: DVLMTQTPLSLPVSLGDQASISCRSSQNIIHSNGNTYLEWYLQKPGQSPKLLIYKVSNRFSGVPDRFTGSGSGTDFTLKISRVEAEDLGVYFCSQSTHVPFTFGGGTKLEIKR | 93.1 | 70.6 | 100 | 51.7 | 63.4 |  |  | 
9 | SM-05F anti-γc ScFv (scFv, part only; not given: linker and E-tag, not shown: small tags and cut ends) scFv (part 1 of 2), part: EVQLQQSGPELVKPGASVKIFCKTSGYTFTEYTMHWVKQSHGESLEWIGGIDPNTGGVTYNQKFKGKATLTADKSSSTAYMELRSLTSEDSAVYYCARRRRYYGYALDYWGQGTSVTVSS scFv (part 2 of 2), part: DVLMTQTPLSLPVSLGDQASISCRSSQSIVHNNGNTYLEWYLQKPGQSPKLLIYKVSNRFFGVPDRFSGSGSGTYFTLKISRVEAEDLGVYYCFQGSHVPWTFGGGTKLEIKR | 92.4 | 79 | 99.4 | 43.7 | 46 |  |  | 
10 | SM-05K: anti-γc antibody; CDR SEQ ID NO: 164, 166, 168, 172, 174, 176 (antibody, V domains shown, left off: another chain or arm of the molecule; small tags and cut ends) VH: EVQLLESGPELVKPGASVKISCKTSGYSFTDYFMNWVKQSHGESLEWIGGIDPNTGGVTYNQKFKGKATLTVDKSASTAYMELRSLTSEDSAVYYCARRRRYYGYAMDYWGQGTSVTVSS VL: DVLMTQTPLSLPVSLGDQASISCRSSQSIVHSNGNTYLEWYLQKPGQSPKLLIYKVSNRFSGVPDRFSGSGSGTDFTLKISRVEAEDLGVYFCSQSTHVPWTFGGGTKLEIK |  |  |  |  |  | 42.97 | 90.77 | 86.02
11 | SM-05G anti-γc ScFv (scFv, part only; not given: linker and E-tag, not shown: small tags and cut ends) scFv (part 1 of 2), part: EVQLQQSGPELVKPGASVKIFCKTSGYTFTEYTMHWVKQSHGESLEWIGGIDPNTGGVTYNQKFKGKATLTADSSSSTAYMELRNLTSEDSAVYYCARRRRYYGYALDYWGQGTSVTVSS scFv (part 2 of 2), part: DVVMTQTPLSLPVNLGDQASISCRSSQSLVHSNGNTYLDWYLQKPGQSPKLLIYKVSNRFSGVPDRFSGSGSGTYFTLNFSRVEAEDLGVYYCFQGSHVPFTFGSGTKLEIKR |  |  | 0 |  |  |  |  | 
